The text below walks through data of patent publication US20240240209A1, “SYNTHESIS OF ENANTIOPURE CIS-A-IRONE FROM A RENEWABLE CARBON SOURCE” (Agency for Science, Technology and Research, priority 2021, published 2024).

The nature of the experiment: In vivo cis-α-irone production from glucose/glycerol in strain 2O31 cultures. The format is cell-based, Escherichia coli. The following applies: pMT plasmid transformed into strain 2O31; 2 days. The source says:
The advantage of in vivo biotransformation is that microbial cells can regenerate expensive co-factors rendering the scale-up bioprocess more cost-effective. […] Thus, pMT was incorporated into our psi-ionone producing microbe^7,8, to synthesize cis-α-irone from cheap renewable carbon sources (glucose/glycerol) (FIG. 4 and FIG. 19). To achieve high productivity, the psi-ionone production was first optimized by multidimensional heuristic process (MHP)^15, and strain 2O31 was identified to be the highest producer for psi-ionone (FIG. 19b). 2O31 was used as the base strain to probe cis-α-irone production in vivo (Table 5). Moreover, to improve the plasmid stability, auxotrophic strain was used with chemically defined media^1. The plasmid carrying pMT1, pMT7 or pMT10 was transformed into the strain 2O31, and produced less than 0.01, about 2 and about 3 mg/L cis-α-irone respectively in 2 days (FIG. 19d). To further optimize irone production with pMT10, three different culture conditions were tested: no methionine or dodecane added (control); 10 mM methionine added; 10 mM methionine and 20% dodecane added. In the control reaction, approximately 4.8 mg/L or 0.85 mg/L/OD cis-α-irone was produced after 3-day incubation (2O31-pMT10, FIGS. 4c and 4e). […] Lastly, when both methionine and dodecane were added, psi-ionone was accumulated in the organic layer and only ˜0.3 mg/L or ˜0.05 mg/L/OD cis-α-irone was produced (2O31-pMT10, FIGS. 4c, d and e). […] The limited methylation efficiency might be due to insufficient cofactor or SAH inhibition. […] In fact, the total amount of psi-ionone and cis-α-irone decreased (FIG. 4c, and d). As SAM biosynthesis is regulated by metJ in E. coli^16,17, the aforementioned six reactions were subsequently examined under metJ deleted genetic background (2O31, ΔmetJ). An increase in cis-α-irone titer to ˜5.7 mg/L was produced by 2O31 ΔmetJ-pMT10 strain with 10 mM methionine supplementation (FIG. 4c). An increase in specific cis-α-irone titer to ˜1.2 mg/L/OD was produced by 2O31 ΔmetJ-pMT10r strain without methionine supplementation (FIG. 4d). […]

Positions count from the first letter of the chain named. Names and notes keep the numbering of the source.

B1: pMT7: pMT1 with Y200F S182E L273V L180A A202L Y65F (protein)
chain: MPQEARTPQQQVTADEVGDWYDKFGEVYHLTLGESVHCGLWFPPDAPVPQDMELVTMSSQAQDRFTDYLIETLDPKAGQHLLDIGCGTGRTALKAARQRGIAVTGVAVSKEQIAAANRLAAGHGLTERLTFEVADAMRLPYEDESFDCAWAIESLCHMDRAKALGEAWRVLKPGGDLLVAEEVVTEELTEPETALFETLFALNVPPRLGEFFDIVSGAGFHTLSLKDLSANLAMTMNVFALGVYSRRAEFTERFGAEFVDGLLAGLGSAQETVIRKTRFFMATLRKPAV
modifications: Modified from pMT1
notes: pMT1 with Y200F S182E L273V L180A A202L Y65F
As for B1, the cis-α-irone produced result is recorded as “about 2 mg/L”.

B2: pMT10: pMT1 with Y200F S182E L273V L180A A202L Y65F C156A T91P (protein)
chain: B1 chain with T91P, C156A
modifications: Modified from pMT1
notes: pMT1 with Y200F S182E L273V L180A A202L Y65F C156A T91P
For the molecule B2, the cis-α-irone produced entry is recorded as “about 3 mg/L”.
